In patent US5856125 one finds activity (fold repression) data, which are given here for 1 substance.

For the series, the target named is T1, ERF (Homo sapiens) (UniProt P50548).
T1 sequence: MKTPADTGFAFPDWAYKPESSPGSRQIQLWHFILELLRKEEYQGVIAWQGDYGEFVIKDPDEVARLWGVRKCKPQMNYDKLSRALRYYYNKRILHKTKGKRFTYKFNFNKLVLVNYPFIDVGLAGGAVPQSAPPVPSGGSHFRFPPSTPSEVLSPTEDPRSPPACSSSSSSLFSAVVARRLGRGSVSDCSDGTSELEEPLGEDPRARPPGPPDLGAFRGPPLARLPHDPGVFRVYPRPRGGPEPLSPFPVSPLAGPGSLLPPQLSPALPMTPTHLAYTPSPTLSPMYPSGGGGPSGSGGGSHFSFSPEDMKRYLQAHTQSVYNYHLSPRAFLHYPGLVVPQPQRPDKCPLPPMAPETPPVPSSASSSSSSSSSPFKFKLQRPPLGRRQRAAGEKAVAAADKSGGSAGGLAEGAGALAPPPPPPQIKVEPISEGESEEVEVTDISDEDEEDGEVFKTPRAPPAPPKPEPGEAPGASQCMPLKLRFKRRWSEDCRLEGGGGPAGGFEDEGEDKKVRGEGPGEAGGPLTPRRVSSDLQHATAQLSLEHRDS
Briefly: cell_activity. To be noted: HeLa CAT reporter; values over 30 set to 30.

Take ETS2 promoter -394 to +125: the activity (fold repression) is more than 30.
